One test concerns the target T1, human C4b (human) (UniProt P0C0L4).
T1 sequence: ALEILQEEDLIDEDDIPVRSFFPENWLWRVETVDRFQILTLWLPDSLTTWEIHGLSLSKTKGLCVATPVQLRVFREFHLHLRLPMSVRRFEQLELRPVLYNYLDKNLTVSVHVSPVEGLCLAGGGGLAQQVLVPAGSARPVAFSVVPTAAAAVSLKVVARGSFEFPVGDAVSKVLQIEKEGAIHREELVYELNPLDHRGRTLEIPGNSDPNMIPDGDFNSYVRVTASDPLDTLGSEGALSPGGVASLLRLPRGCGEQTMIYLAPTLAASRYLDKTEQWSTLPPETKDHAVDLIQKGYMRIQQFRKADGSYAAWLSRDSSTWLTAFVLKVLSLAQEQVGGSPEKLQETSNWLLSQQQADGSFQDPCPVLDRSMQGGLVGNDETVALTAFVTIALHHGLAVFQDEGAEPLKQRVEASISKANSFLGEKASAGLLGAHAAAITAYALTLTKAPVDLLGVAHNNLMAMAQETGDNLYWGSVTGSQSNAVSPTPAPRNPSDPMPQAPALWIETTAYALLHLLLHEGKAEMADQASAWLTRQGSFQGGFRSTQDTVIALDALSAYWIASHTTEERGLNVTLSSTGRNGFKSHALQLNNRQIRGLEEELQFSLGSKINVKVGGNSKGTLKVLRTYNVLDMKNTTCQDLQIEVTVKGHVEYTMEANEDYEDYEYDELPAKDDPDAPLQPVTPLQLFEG

Test [1] deals with soluble human C3b (human) (UniProt P01024).

CFI-HSA fusion WT; GGSSGG (SEQ ID NO: 6); CR1(ccp15); fH(ccp2); fH(ccp3); fH(ccp4), sequence (P17927 other isoform, or with tags, fused parts or gaps limits assumed): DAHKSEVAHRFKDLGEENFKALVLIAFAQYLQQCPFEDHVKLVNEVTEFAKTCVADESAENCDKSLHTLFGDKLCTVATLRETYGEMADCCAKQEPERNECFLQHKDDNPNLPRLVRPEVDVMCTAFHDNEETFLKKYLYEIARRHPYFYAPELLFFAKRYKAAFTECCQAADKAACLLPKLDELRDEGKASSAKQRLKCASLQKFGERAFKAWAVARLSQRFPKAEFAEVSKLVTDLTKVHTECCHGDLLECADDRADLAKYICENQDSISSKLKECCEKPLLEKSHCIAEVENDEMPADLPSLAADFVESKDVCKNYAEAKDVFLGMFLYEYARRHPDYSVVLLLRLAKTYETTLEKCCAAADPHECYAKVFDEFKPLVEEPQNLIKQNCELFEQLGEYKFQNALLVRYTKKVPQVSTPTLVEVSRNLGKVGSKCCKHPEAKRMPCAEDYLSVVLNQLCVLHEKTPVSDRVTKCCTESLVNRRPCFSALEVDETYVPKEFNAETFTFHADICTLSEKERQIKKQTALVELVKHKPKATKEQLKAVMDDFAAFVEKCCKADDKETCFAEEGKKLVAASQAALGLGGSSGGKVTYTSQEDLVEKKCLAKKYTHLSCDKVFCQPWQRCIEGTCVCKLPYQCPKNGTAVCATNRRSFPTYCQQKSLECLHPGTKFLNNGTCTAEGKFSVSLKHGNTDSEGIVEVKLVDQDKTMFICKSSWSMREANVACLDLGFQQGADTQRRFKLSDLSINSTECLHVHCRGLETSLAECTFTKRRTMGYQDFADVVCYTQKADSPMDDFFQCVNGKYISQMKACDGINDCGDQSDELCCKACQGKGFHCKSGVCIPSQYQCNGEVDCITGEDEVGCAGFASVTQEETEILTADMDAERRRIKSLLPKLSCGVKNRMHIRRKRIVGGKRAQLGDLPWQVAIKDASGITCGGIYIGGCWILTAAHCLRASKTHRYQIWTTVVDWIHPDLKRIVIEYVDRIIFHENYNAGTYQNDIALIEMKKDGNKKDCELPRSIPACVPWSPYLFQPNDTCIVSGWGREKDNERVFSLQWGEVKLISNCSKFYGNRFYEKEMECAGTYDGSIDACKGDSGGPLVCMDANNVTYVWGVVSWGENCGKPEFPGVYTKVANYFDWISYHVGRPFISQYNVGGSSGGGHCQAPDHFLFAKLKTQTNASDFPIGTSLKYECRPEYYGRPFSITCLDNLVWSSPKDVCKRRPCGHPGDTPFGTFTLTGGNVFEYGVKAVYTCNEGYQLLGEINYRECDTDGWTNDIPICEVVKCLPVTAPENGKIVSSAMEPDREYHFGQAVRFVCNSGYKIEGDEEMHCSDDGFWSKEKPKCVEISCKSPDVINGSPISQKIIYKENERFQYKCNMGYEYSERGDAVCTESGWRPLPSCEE

For the substance “CFI-HSA Y408L; N531G; E461Q; F464Y (enzyme)”, the C4b Screen Ref Fold (fold of CFI-HSA wild type) with human C4b (human) is 5.6. Moreover, in test [1], the iC3b Screen Ref Fold (fold of CFI-HSA wild type) was found to be 1.29.

“CFI-HSA Y408L; N531G; E461Q; R462K (enzyme)”: the C4b Screen Ref Fold (fold of CFI-HSA wild type) with human C4b (human) was 6.79. The iC3b Screen Ref Fold (fold of CFI-HSA wild type) in test [1] was 1.24.

In the case of CFI-HSA Y408L; N531G; F464Y (enzyme), in the test with human C4b (human), the C4b Screen Ref Fold (fold of CFI-HSA wild type) was 5.93. Further, the iC3b Screen Ref Fold (fold of CFI-HSA wild type) in test [1] was determined as 1.

As for CFI-HSA Y408L; N531G; R462K (enzyme), in the test with human C4b (human), the C4b Screen Ref Fold (fold of CFI-HSA wild type) is 3.76. The iC3b Screen Ref Fold (fold of CFI-HSA wild type) in test [1] is 1.13.

With “CFI-HSA Y408L; N531G; R462K; F464Y (enzyme)”, the C4b Screen Ref Fold (fold of CFI-HSA wild type) with human C4b (human) came out at 5.72. In addition, the iC3b Screen Ref Fold (fold of CFI-HSA wild type) in test [1] is 1.19.

CFI-HSA Y408L; R462K (enzyme): the C4b Screen Ref Fold (fold of CFI-HSA wild type) in the test with human C4b (human) stood at 0.31. The iC3b Screen Ref Fold (fold of CFI-HSA wild type) in test [1] is 0.48.

For the substance CFI-HSA Y408L; R462K; F464Y (enzyme), the C4b Screen Ref Fold (fold of CFI-HSA wild type) with human C4b (human) is 0.27. In test [1], the iC3b Screen Ref Fold (fold of CFI-HSA wild type) was 0.19.

As for CFI-HSA Y408L; S507A; N531G (enzyme), the C4b Screen Ref Fold (fold of CFI-HSA wild type) with human C4b (human) amounted to 0.12. Also, the iC3b Screen Ref Fold (fold of CFI-HSA wild type) in test [1] is -0.01.

“CFI-HSA Y408L; S507A; N531G; GGSSGG (SEQ ID NO: 6); CCP_1-4 (enzyme)”: in the test with human C4b (human), the C4b Screen Ref Fold (fold of CFI-HSA wild type) amounted to 0.1. The iC3b Screen Ref Fold (fold of CFI-HSA wild type) in test [1] is 0.01.

Consider “CFI-HSA fusion WT; GGSSGG (SEQ ID NO: 6); CR1(ccp15); CR1(ccp16); CR1(ccp17); fH(ccp4) (from UniProt P17927) (enzyme)”, for which the C4b Screen Ref Fold (fold of reference) with human C4b (human) was 2.57. The iC3b Screen Ref Fold (fold of reference) in test [1] was 0.01.

For “CFI-HSA fusion WT; GGSSGG (SEQ ID NO: 6); CR1(ccp15); CR1(ccp16); fH(ccp3); fH(ccp4) (from UniProt P17927) (enzyme)”, in the test with human C4b (human), the C4b Screen Ref Fold (fold of reference) amounted to 0.25. In addition, in test [1], the iC3b Screen Ref Fold (fold of reference) is -0.01.

Regarding “CFI-HSA fusion WT; GGSSGG (SEQ ID NO: 6); CR1(ccp15); fH(ccp2); fH(ccp3); fH(ccp4) (from UniProt P17927) (enzyme)”, the C4b Screen Ref Fold (fold of reference) with human C4b (human) came out at 1.44. Moreover, the iC3b Screen Ref Fold (fold of reference) in test [1] is -0.01.

“CFI-HSA fusion WT; GGSSGG (SEQ ID NO: 6); fH(ccp1); CR1(ccp16); CR1(ccp17); fH(ccp4) (from UniProt P17927) (enzyme)”: the C4b Screen Ref Fold (fold of reference) with human C4b (human) turned out to be 0.42. For the same substance, the iC3b Screen Ref Fold (fold of reference) in test [1] came out at 0.

As for “CFI-HSA fusion WT; GGSSGG (SEQ ID NO: 6); fH(ccp1); CR1(ccp16); fH(ccp3); fH(ccp4) (from UniProt P17927) (enzyme)”, the C4b Screen Ref Fold (fold of reference) with human C4b (human) came out at 0.59. Moreover, in test [1], the iC3b Screen Ref Fold (fold of reference) was found to be 0.

Turning to “CFI-HSA variant A405S; G406A; Y408L; Q409D (enzyme)”, the C4b Screen Ref Fold (fold of reference) in the test with human C4b (human) came out at 0.11. In addition, the iC3b Screen Ref Fold (fold of reference) in test [1] stood at 0.06.

“CFI-HSA variant A405S; G406R; Y408L; Q409D (enzyme)”: in the test with human C4b (human), the C4b Screen Ref Fold (fold of reference) is -0.08. In test [1], the iC3b Screen Ref Fold (fold of reference) amounted to 0.13.

For “CFI-HSA variant D425K; E457G; E461Q; K504R; N531G (enzyme)”, the C4b Screen Ref Fold (fold of CFI-HSA wild type) with human C4b (human) is 3.53. For the same substance, the iC3b Screen Ref Fold (fold of CFI-HSA wild type) in test [1] came to 2.46.

Regarding “CFI-HSA variant D425K; E457G; E461Q; N531G; P558S (enzyme)”, the C4b Screen Ref Fold (fold of CFI-HSA wild type) in the test with human C4b (human) worked out at 3.25. For the same substance, the iC3b Screen Ref Fold (fold of CFI-HSA wild type) in test [1] is 1.98.

Regarding “CFI-HSA variant D425K; E530F; F537K; K504R (enzyme)”, in the test with human C4b (human), the C4b Screen Ref Fold (fold of CFI-HSA wild type) stood at 0.02. The iC3b Screen Ref Fold (fold of CFI-HSA wild type) in test [1] came to 0.13.

As to “CFI-HSA variant D425K; E530F; F537K; K504R; P558S (enzyme)”, the C4b Screen Ref Fold (fold of CFI-HSA wild type) with human C4b (human) was 0.16. For the same substance, in test [1], the iC3b Screen Ref Fold (fold of CFI-HSA wild type) amounted to 0.09.

In the case of CFI-HSA variant D425K; F537K (enzyme), the C4b Screen Ref Fold (fold of CFI-HSA wild type) in the test with human C4b (human) was 0.22. Further, the iC3b Screen Ref Fold (fold of CFI-HSA wild type) in test [1] was 2.11.

Turning to CFI-HSA variant D425K; K504R (enzyme), in the test with human C4b (human), the C4b Screen Ref Fold (fold of CFI-HSA wild type) stood at 0.12. The iC3b Screen Ref Fold (fold of CFI-HSA wild type) in test [1] was determined as 2.05.

As for CFI-HSA variant D425K; S507A (enzyme), in the test with human C4b (human), the C4b Screen Ref Fold (fold of CFI-HSA wild type) turned out to be 0.01. The iC3b Screen Ref Fold (fold of CFI-HSA wild type) in test [1] is -0.03.

In the case of “CFI-HSA variant D425K; Y408M; E530F; F537K (enzyme)”, in the test with human C4b (human), the C4b Screen Ref Fold (fold of CFI-HSA wild type) is 0.03. In addition, the iC3b Screen Ref Fold (fold of CFI-HSA wild type) in test [1] was 0.07.

Turning to “CFI-HSA variant D425K; Y408M; E530F; F537K; K504R (enzyme)”, the C4b Screen Ref Fold (fold of CFI-HSA wild type) with human C4b (human) turned out to be 0.15. Also, the iC3b Screen Ref Fold (fold of CFI-HSA wild type) in test [1] amounted to 0.02.

On to “CFI-HSA variant D425K; Y408M; E530F; F537K; K504R; P558S (enzyme)”, for which the C4b Screen Ref Fold (fold of CFI-HSA wild type) with human C4b (human) came to 0.11. In addition, the iC3b Screen Ref Fold (fold of CFI-HSA wild type) in test [1] was found to be 0.01.

As to “CFI-HSA variant D425K; Y408M; E530F; F537K; P558S (enzyme)”, the C4b Screen Ref Fold (fold of CFI-HSA wild type) in the test with human C4b (human) turned out to be 0.07. Moreover, the iC3b Screen Ref Fold (fold of CFI-HSA wild type) in test [1] came to 0.04.

Take “CFI-HSA variant D425K; Y408M; E530F; K504R; P558S (enzyme)”: the C4b Screen Ref Fold (fold of CFI-HSA wild type) with human C4b (human) came to 0.49. In test [1], the iC3b Screen Ref Fold (fold of CFI-HSA wild type) was 1.84.

Turning to “CFI-HSA variant D425K; Y408M; E530F; P558S (enzyme)”, the C4b Screen Ref Fold (fold of CFI-HSA wild type) with human C4b (human) turned out to be 0.07. Also, the iC3b Screen Ref Fold (fold of CFI-HSA wild type) in test [1] was found to be 1.53.

Consider “CFI-HSA variant D425K; Y408M; F537K; K504R; P558S (enzyme)”, for which the C4b Screen Ref Fold (fold of CFI-HSA wild type) with human C4b (human) came to 0.08. Moreover, the iC3b Screen Ref Fold (fold of CFI-HSA wild type) in test [1] came to 1.49.

“CFI-HSA variant E416A; E457G; E461Q; R462K; F464Y; N531G (enzyme)”: in the test with human C4b (human), the C4b Screen Ref Fold (fold of CFI-HSA wild type) worked out at 3.68. The iC3b Screen Ref Fold (fold of CFI-HSA wild type) in test [1] was 3.21.

As for “CFI-HSA variant E457G; E461Q; N531G; S507A (enzyme)”, the C4b Screen Ref Fold (fold of CFI-HSA wild type) with human C4b (human) was -0.05. For the same substance, the iC3b Screen Ref Fold (fold of CFI-HSA wild type) in test [1] was -0.04.

On to CFI-HSA variant E457G; S507A (enzyme), for which the C4b Screen Ref Fold (fold of CFI-HSA wild type) in the test with human C4b (human) is 0.1. The iC3b Screen Ref Fold (fold of CFI-HSA wild type) in test [1] is -0.02.

Regarding CFI-HSA variant E461A (enzyme), in the test with human C4b (human), the C4b Screen Ref Fold (fold of reference) stood at 1.44. Moreover, in test [1], the iC3b Screen Ref Fold (fold of reference) was 1.37.

Take CFI-HSA variant E461D (enzyme): the C4b Screen Ref Fold (fold of reference) with human C4b (human) was 0.12. The iC3b Screen Ref Fold (fold of reference) in test [1] was 0.12.

CFI-HSA variant E461F (enzyme): the C4b Screen Ref Fold (fold of reference) with human C4b (human) came out at 2.62. The iC3b Screen Ref Fold (fold of reference) in test [1] worked out at 0.95.

As for CFI-HSA variant E461G (enzyme), the C4b Screen Ref Fold (fold of reference) with human C4b (human) was determined as 0.31. For the same substance, in test [1], the iC3b Screen Ref Fold (fold of reference) was 0.94.

As for CFI-HSA variant E461N (enzyme), the C4b Screen Ref Fold (fold of reference) with human C4b (human) amounted to 2.52. Further, the iC3b Screen Ref Fold (fold of reference) in test [1] came out at 1.15.

Source of the values: patent US20230038638A1, “COMPLEMENT FACTOR I-RELATED COMPOSITIONS AND METHODS” (published 2023).
